Results on one substance are retold here after doi:10.1101/239830.

In general, Kd refers to the concentration at which binding is half-saturated. Read a high Kd as weaker binding.

Common to all, as to experiment: fluorescence polarisation
A general note: Polarisation of emitted light reports the rotation of a fluorescent probe.

Assay [1] deals with OR-1 peptide derived from olfactory receptor OLFR1507.
Assay [2] addresses V1rb2-1 peptide derived from vomeronasal receptor V1RB2.
Assay [3] concerns the target V1rb2-2 peptide derived from vomeronasal receptor V1RB2.

With “PERK LD as used in the fluorescence anisotropy assays (domain or fragment)”, the Kd stood at 250 µM in assay [1], 6.6 µM in assay [2] and 6.1 µM in assay [3].
